This assay concerns the target biotinylated histone H3 peptide trimethylated at lysine 27, H3K27me3 (21–44), P68431. The experiment in a line: peptide or protein array.

B1: Pc2TF, bivalent polycomb-based transcription factor with the flexible linker (GGGGS)4, Q9HC52 1-62; Q9HC52 1-62 (designed binder)
chain: MELSAVGERVFAAEALLKRRIRKGRMEYLVKWKGWSQKYSTWEPEENILDARLLAAFEERERGGGGSGGGGSGGGGSGGGGSMELSAVGERVFAAEALLKRRIRKGRMEYLVKWKGWSQKYSTWEPEENILDARLLAAFEERER
modifications: not checked
As to B1, the fold smaller Kd^app than PcTF came out at 2 fold.
